Legend:
[1] = target: CFHR2/1-2 (N-terminal SCRs 1-2 of CFHR2) (human); experiment: SEC-MALS; static light scattering (miniDawn TREOS, Optilab T-rEX) with size exclusion chromatography on Superdex 200 or Superdex 75; proteins purified by Ni2+-chelate chromatography, deglycosylated, non-reduced
N-biotinylated C3b = N-biotinylated C3b (UniProt P01024); experiment: SPR; Biacore T200, 25°C; N-biotinylated C3b captured on a streptavidin-coated CM3 chip (520 RU); factor H or CFHR2 6.25–3200 nM in HBS-EP (10 mM HEPES pH 7.4, 150 mM NaCl, 50 µM EDTA, 0.005% P20), 30 µl/min; 1:1 model with mass transport term, KD from kinetic rate constants; one CFHR2 dimer regarded as one molecule
C3d = target: T1, C3d (UniProt P01024 1002-1303); experiment: ELISA; competition: C3b or C3dg (methods; C3d in results) 5 µg/ml immobilised; constant CFHR2 (5 µg/ml, 0.07 µM) and increasing factor H (5–50 µg/ml, 0.033–0.33 µM); factor H detected with factor H/1-4 antiserum, CFHR2 with mAb A72; settings: both partners purified
T1 construct: C3d, cleavage fragment of complement C3; source: bought: Complement Technology

[2] = target: the molecule itself; experiment: SEC-MALS; static light scattering (miniDawn TREOS, Optilab T-rEX) with size exclusion chromatography on Superdex 200 or Superdex 75; proteins purified by Ni2+-chelate chromatography, deglycosylated, non-reduced
C3dg = target: T2, C3dg (UniProt P01024 955-1303); experiment: ELISA; C3b, C3c, C3dg or C3d (each 142 nM) coated on MaxiSorp plates; CFHR2 or factor H (each 0.07 µM) or CFHR2 fragments in equimolar amounts; detected with CFHR1 and factor H antisera; settings: both partners purified
T2 construct: C3dg, cleavage fragment of complement C3; cloned with the printed primer pair; source: E. coli, pET200/D-Topo expression system, purified (Ni-NTA Superflow Cartridge), dialyzed against DPBS
T2 sequence (P01024 955-1303): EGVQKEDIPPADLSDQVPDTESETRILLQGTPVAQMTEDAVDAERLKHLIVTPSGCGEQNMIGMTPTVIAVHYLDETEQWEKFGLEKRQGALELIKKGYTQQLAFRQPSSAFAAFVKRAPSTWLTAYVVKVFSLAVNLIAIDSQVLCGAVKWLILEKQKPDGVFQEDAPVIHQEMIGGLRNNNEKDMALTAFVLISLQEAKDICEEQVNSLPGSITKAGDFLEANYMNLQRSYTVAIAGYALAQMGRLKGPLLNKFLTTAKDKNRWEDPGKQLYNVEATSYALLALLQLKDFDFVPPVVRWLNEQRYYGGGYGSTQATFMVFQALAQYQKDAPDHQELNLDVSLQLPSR

Sequence of Factor H (P08603 19-1231): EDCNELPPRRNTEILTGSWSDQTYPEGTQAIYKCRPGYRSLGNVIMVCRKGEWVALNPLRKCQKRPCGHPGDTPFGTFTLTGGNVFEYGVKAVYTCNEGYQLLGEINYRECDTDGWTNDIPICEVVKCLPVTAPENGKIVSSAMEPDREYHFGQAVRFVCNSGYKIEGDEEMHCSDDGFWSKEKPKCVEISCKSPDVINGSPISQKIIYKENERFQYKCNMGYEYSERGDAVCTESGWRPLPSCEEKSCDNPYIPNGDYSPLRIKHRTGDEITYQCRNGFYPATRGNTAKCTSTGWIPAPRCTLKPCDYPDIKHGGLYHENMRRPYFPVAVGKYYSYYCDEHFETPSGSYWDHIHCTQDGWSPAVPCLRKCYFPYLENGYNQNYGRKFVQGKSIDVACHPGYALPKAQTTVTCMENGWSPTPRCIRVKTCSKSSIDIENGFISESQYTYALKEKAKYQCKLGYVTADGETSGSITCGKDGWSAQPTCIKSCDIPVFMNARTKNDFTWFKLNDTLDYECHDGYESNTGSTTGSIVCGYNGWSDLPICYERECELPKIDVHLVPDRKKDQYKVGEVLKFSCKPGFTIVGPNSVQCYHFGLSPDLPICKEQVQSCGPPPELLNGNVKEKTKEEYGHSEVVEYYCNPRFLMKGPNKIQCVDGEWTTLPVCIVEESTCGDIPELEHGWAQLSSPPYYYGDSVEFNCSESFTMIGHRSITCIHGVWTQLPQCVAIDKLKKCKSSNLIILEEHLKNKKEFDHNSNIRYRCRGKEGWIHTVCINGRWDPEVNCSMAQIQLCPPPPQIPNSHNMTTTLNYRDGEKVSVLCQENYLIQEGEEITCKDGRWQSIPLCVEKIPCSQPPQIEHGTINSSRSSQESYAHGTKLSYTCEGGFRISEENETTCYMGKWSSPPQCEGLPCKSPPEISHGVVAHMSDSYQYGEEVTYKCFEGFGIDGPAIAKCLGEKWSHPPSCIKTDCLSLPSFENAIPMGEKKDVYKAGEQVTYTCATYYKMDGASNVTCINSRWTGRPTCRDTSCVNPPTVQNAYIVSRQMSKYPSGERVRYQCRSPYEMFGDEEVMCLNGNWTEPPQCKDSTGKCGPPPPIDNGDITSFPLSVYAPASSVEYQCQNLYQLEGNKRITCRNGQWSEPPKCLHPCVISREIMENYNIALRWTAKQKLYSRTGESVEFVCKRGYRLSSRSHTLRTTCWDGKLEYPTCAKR
T1 sequence (P01024 1002-1303): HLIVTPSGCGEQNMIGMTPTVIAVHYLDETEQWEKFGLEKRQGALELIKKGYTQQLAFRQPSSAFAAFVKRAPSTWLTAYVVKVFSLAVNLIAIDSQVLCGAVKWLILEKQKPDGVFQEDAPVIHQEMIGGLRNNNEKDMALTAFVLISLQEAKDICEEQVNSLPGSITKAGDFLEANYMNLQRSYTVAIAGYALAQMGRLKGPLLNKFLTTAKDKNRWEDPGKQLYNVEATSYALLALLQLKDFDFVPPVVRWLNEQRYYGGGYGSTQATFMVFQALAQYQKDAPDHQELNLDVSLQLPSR

| Molecule | stoichiometry N [1] | Kd (N-biotinylated C3b) | binding result (C3d) | stoichiometry N [2] | binding result (C3dg) |
| --- | --- | --- | --- | --- | --- |
| CFHR2/1-2 (N-terminal SCRs 1-2 of CFHR2) (domain or fragment) | 2 | – | – | – | – |
| Factor H (from UniProt P08603 19-1231) (natural protein) | – | 0.57 µM | – | – | – |
| Human factor H-related protein 2 (CFHR2), recombinant full length (natural protein, UniProt P36980 19-270, looked up, Complement factor H-related protein 2 (CFHR2), human, four SCR domains; Secreted from Pichia; Several glycosylated forms; also called CFHR2 homodimer; CFHR2 dimer) EAMFCDFPKINHGILYDEEKYKPFSQVPTGEVFYYSCEYNFVSPSKSFWTRITCAEEGWSPTPKCLRLCFFPFVENGHSESSGQTHLEGDTVQIICNTGYRLQNNENNISCVERGWSTPPKCRSTISAEKCGPPPPIDNGDITSFLLSVYAPGSSVEYQCQNLYQLEGNNQITCRNGQWSEPPKCLDPCVISQEIMEKYNIKLKWTNQQKLYSRTGDIVEFVCKSGYHPTKSHSFRAMCQNGKLVYPSCEEK | – | 4.2 µM | binds | 2 | binds |
